Where a chain is given by its changes, count along the chain named.
T1: mouse NBL1 (mouse, UniProt Q61477 17-178, limits assumed)
T1 sequence (looked up): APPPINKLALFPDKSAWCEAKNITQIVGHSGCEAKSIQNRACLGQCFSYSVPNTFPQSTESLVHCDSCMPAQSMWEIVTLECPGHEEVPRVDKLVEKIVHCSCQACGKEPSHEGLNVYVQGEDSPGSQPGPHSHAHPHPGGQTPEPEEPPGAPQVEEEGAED

T2: native murine NBL1 (murine, UniProt Q61477 17-178)
T2 construct: Endogenous protein, not recombinant; also called murine plasma NBL1; murine splenocyte NBL1
T2 sequence (looked up): T1 sequence (looked up)

T3: native human NBL1 (human, UniProt P41271 17-181, limits assumed)
T3 construct: Endogenous protein in permeabilized PBMCs of healthy volunteers; also called native human NBL1 found in human PBMCs
T3 sequence (looked up): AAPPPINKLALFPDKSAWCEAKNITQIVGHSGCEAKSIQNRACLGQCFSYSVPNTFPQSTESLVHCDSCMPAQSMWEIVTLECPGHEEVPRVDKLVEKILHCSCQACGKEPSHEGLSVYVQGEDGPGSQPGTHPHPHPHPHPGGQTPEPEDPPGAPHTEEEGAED

B1: Antibody YU1019-A12 (antibody, human IgG1, V domains shown)
VH: EVQLLESGPGLVKPSQTLSLTCTVSGGSISSGDYYWSWIRQPPGKGLEWIGYIYYSGSTYYNPSLKSRVTISVDTSKNQFSLKLSSVTAADTAVYYCARGRRLLLFHWGQGTTVTVSS
VL: QSVLTQPPSVSAAPGQKVTISCSGSGSSIGNNYVSWYQQVPGTPPKLLIYDNNKRASGIPDRFSGSKSGTSATLGITGLQTGDEADYYCGTWDNSLSAVVFGGGTKLTVL
B2: Antibody YU1018-G01 (antibody, human IgG1, V domains shown)
VH: QVQLVQSGAEVKKPGASVKVSCKASGYTFTSYAMHWVRQAPGQRLEWMGWINAGNGNTKYSQKFQGRVTITRDTSASTAYMELSSLRSEDTAVYYCARGRELLTFDYWGQGTLVTVSS
VL: not shown
B3: Antibody YU1019-B06 (antibody, human IgG1, V domains shown)
VH: EVQLLESGGGVVQPGRSLRLSCAASGFTFSSYAMHWVRQAPGKGLEWVAVISYDGSNKYYADSVKGRFTISRDNSKNTLYLQMNSLRAEDTAVYYCASPVLRYFDWLPNYWGQGTLVTVSS
VL: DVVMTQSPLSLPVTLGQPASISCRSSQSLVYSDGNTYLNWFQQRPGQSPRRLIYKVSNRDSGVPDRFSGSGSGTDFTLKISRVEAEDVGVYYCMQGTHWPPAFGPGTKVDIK
B4: Antibody YU1018-E07 (antibody, V domains shown)
VH: B3 VH with L116T
VL: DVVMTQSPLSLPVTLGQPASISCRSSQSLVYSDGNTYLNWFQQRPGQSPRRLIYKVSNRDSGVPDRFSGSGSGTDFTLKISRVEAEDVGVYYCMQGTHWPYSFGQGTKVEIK
B5: Antibody YU1018-D12 (antibody, V domains shown)
VH: EVQLVQSGAEVKKPGASVKVSCKASGYTFTSYGISWVRQAPGQGLEWMGWISAYNGNTNYAQKLQGRVTMTTDTSTSTAYMELRSLRSDDTAVYYCARDVGYSYGIFDYWGQGTLVTVSS
VL: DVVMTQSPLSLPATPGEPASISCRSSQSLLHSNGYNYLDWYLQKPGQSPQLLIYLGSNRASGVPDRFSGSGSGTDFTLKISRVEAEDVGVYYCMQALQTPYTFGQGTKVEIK
B6: Antibody YU1018-C11 (antibody, V domains shown)
VH: QVQLVQSGGGLVQPGGSLRLSCAASGFTFSSYAMSWVRQAPGKGLEWVSAISGSGGSTYYADSVKGRFTISRDNSKNTLYLQMNSLRAEDTAVYYCARGGFWGSYRYWSAAFDIWGQGTMVTVSS
VL: not shown
B7: Antibody YU1018-E04 (antibody, human IgG1, V domains shown)
VH: QVQLVQSGAEVKKPGESLKISCKGSGYSFTSYWIGWVRQMPGKGLEWMGIIYPGDSDTRYSPSFQGQVTISADKSISTAYLQWSSLKASDTAMYYCARAIVGATSGYWFDPWGQGTLVTVSS
VL: not shown
B8: Antibody YU1018-D08 (antibody, human IgG1, V domains shown)
VH: QVQLVQSGAEVKKPGSSVKVSCKASGGTFSSYAISWVRQAPGQGLEWMGGIIPIFGTANYAQKFQGRVTITADKSTSTAYMELSSLRSEDTAVYYCARDRYYDSSGYYLMDPWGQGTLVTVSS
VL: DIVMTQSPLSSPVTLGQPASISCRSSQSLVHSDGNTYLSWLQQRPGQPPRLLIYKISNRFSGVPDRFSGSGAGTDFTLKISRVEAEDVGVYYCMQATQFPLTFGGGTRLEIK
B9: Antibody YU1018-D06 (antibody, human IgG1, V domains shown)
VH: QVQLVESGPGLVKPSQTLSLTCTVSGGSISSGGYYWSWIRQHPGKGLEWIGYIYYSGSTYYNPSLKSRVTISVDTSKNQFSLKLSSVTAADTAVYYCARSGAAGIPWFDPWGQGTLVTVSS
VL: B1 VL with G26S, S28N, V40L, P44A, D51E, K54E, A56P, F63L, G75A, N94S
B10: Antibody YU1018-E01 (antibody, human IgG1, V domains shown)
VH: QVQLVQSGAEVKKPGASVKVSCKASGYTFTSYGISWVRQAPGRGLEWMGWISAYNGNTNYAQKLQGRVTMTTDTSTSTAYMELRSLRSDDTAVYYCARGPRDGYNDYWGQGTLVTVSS
VL: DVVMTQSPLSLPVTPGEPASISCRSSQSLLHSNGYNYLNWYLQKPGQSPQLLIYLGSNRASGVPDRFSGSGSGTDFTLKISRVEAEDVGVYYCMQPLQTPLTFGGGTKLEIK

target: T1, mouse NBL1; assay: ELISA, IgG1 format

| Binder | binding result |
| --- | --- |
| B1 | binds |
| B2 | binds |
| B3 | binds |
| B4 | binds |
| B5 | binds |
| B6 | binds |
| B7 | binds |
| B8 | binds |
| B9 | binds |
| B10 | binds |

target: T2, native murine NBL1; assay: sandwich ELISA on native murine plasma NBL1
Protocol: Binding of the mAbs to native murine plasma NBL1 was performed using a sandwich ELISA, as illustrated in FIG. 11A.

| Binder | binding result |
| --- | --- |
| B1 | binds |

target: T3, native human NBL1; assay: immunotargeted assay on permeabilized human PBMCs, FACS
Description: PBMCs were isolated from blood samples of healthy volunteers.

| Binder | binding result |
| --- | --- |
| B1 | binds |
| B3 | binds |
| B7 | binds |

target: T2, native murine NBL1; assay: immunotarget assay on permeabilized murine splenocytes, FACS

| Binder | binding result |
| --- | --- |
| B3 | binds |
| B7 | binds |

Reference: patent US20260226144A1 (NEPHRIS, published 2026)
